The values that follow come from publication doi:10.1101/2022.04.03.486873 (bioRxiv, 2022).

To fix the notation:
T1: UPF2L (120-1227) (UniProt Q9HAU5 120-1227)
T1 sequence: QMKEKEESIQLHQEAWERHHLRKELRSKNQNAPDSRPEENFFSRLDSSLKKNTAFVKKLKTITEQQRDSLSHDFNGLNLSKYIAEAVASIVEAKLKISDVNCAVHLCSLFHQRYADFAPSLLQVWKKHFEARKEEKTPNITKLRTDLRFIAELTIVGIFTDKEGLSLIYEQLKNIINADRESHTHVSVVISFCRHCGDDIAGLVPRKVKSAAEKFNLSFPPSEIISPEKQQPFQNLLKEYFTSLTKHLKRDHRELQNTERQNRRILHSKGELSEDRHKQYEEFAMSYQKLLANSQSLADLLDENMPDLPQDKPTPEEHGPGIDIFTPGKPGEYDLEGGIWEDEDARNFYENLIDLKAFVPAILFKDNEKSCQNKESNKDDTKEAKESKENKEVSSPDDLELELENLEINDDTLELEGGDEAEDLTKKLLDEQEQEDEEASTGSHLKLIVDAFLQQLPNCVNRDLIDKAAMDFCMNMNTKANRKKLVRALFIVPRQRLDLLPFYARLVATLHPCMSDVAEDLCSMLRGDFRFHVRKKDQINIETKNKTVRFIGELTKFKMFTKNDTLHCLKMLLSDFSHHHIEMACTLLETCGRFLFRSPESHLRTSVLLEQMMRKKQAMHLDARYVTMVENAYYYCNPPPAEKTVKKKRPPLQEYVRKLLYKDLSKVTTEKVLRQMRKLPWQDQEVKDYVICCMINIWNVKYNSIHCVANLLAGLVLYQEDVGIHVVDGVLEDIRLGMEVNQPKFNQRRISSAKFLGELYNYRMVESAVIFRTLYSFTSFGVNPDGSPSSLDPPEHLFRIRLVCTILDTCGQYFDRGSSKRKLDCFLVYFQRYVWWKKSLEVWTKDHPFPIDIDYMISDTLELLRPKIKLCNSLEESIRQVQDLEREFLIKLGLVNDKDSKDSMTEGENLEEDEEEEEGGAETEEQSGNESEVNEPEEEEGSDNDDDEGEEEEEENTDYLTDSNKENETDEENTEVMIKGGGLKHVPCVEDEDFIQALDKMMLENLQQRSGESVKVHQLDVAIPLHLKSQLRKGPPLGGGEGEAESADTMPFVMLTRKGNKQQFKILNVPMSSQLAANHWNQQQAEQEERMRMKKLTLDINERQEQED

B1: UPF3B-41-189 (domain or fragment)
chain: DRNKEKKEALSKVVIRRLPPTLTKEQLQEHLQPMPEHDYFEFFSNDTSLYPHMYARAYINFKNQEDIILFRDRFDGYVFLDNKGQEYPAIVEFAPFQKAAKKKTKKRDTKVGTIDDDPEYRKFLESYATDNEKMTSTPETLLEEIEAKN
B2: UPF3B-41-189 Y160A (domain or fragment)
chain: DRNKEKKEALSKVVIRRLPPTLTKEQLQEHLQPMPEHDYFEFFSNDTSLYPHMYARAYINFKNQEDIILFRDRFDGYVFLDNKGQEYPAIVEFAPFQKAAKKKTKKRDTKVGTIDDDPEARKFLESYATDNEKMTSTPETLLEEIEAKN
B3: UPF3B-41-189 F163A (domain or fragment)
chain: DRNKEKKEALSKVVIRRLPPTLTKEQLQEHLQPMPEHDYFEFFSNDTSLYPHMYARAYINFKNQEDIILFRDRFDGYVFLDNKGQEYPAIVEFAPFQKAAKKKTKKRDTKVGTIDDDPEYRKALESYATDNEKMTSTPETLLEEIEAKN
B4: UPF3B-41-189 Y160D (domain or fragment)
chain: DRNKEKKEALSKVVIRRLPPTLTKEQLQEHLQPMPEHDYFEFFSNDTSLYPHMYARAYINFKNQEDIILFRDRFDGYVFLDNKGQEYPAIVEFAPFQKAAKKKTKKRDTKVGTIDDDPEDRKFLESYATDNEKMTSTPETLLEEIEAKN
B5: UPF3B-41-189 Y160A+Y167A (domain or fragment)
chain: DRNKEKKEALSKVVIRRLPPTLTKEQLQEHLQPMPEHDYFEFFSNDTSLYPHMYARAYINFKNQEDIILFRDRFDGYVFLDNKGQEYPAIVEFAPFQKAAKKKTKKRDTKVGTIDDDPEARKFLESAATDNEKMTSTPETLLEEIEAKN
B6: UPF3B-41-189 Y167D (domain or fragment)
chain: DRNKEKKEALSKVVIRRLPPTLTKEQLQEHLQPMPEHDYFEFFSNDTSLYPHMYARAYINFKNQEDIILFRDRFDGYVFLDNKGQEYPAIVEFAPFQKAAKKKTKKRDTKVGTIDDDPEYRKFLESDATDNEKMTSTPETLLEEIEAKN
B7: UPF3B-41-189 Y160D+Y167D (domain or fragment)
chain: DRNKEKKEALSKVVIRRLPPTLTKEQLQEHLQPMPEHDYFEFFSNDTSLYPHMYARAYINFKNQEDIILFRDRFDGYVFLDNKGQEYPAIVEFAPFQKAAKKKTKKRDTKVGTIDDDPEDRKFLESDATDNEKMTSTPETLLEEIEAKN
B8: UPF3B-41-189 Y167A (domain or fragment)
chain: DRNKEKKEALSKVVIRRLPPTLTKEQLQEHLQPMPEHDYFEFFSNDTSLYPHMYARAYINFKNQEDIILFRDRFDGYVFLDNKGQEYPAIVEFAPFQKAAKKKTKKRDTKVGTIDDDPEYRKFLESAATDNEKMTSTPETLLEEIEAKN
B9: UPF3A-58-206-Iso1 (domain or fragment)
chain: KPREEKRTALSKVVIRRLPPGLTKEQLEEQLRPLPAHDYFEFFAADLSLYPHLYSRAYINFRNPDDILLFRDRFDGYIFLDSKGLEYPAVVEFAPFQKIAKKKLRKKDAKTGSIEDDPEYKKFLETYCVEEEKTSANPETLLGEMEAKT
B10: UPF3B-41-143 (domain or fragment)
chain: DRNKEKKEALSKVVIRRLPPTLTKEQLQEHLQPMPEHDYFEFFSNDTSLYPHMYARAYINFKNQEDIILFRDRFDGYVFLDNKGQEYPAIVEFAPFQKAAKKK
B11: Avi-UPF2-MIF4GIII (biotinylated) (domain or fragment)
chain: EKTVKKKRPPLQEYVRKLLYKDLSKVTTEKVLRQMRKLPWQDQEVKDYVICCMINIWNVKYNSIHCVANLLAGLVLYQEDVGIHVVDGVLEDIRLGMEVNQPKFNQRRISSAKFLGELYNYRMVESAVIFRTLYSFTSFGVNPDGSPSSLDPPEHLFRIRLVCTILDTCGQYFDRGSSKRKLDCFLVYFQRYVWWKKSLEVWTKDHPFPIDIDYMISDTLELLRPKIKLCNSLEESIRQVQDLEREFLIKLGLVNDKDSKDSMTEGENLEEDEEEEEGGAETEEQSGNESEVNE
modifications: biotin on the Avi tag (BirA)
B12: UPF3B-FL (residues 1-470) (natural protein)
chain: MKEEKEHRPKEKRVTLLTPAGATGSGGGTSGDSSKGEDKQDRNKEKKEALSKVVIRRLPPTLTKEQLQEHLQPMPEHDYFEFFSNDTSLYPHMYARAYINFKNQEDIILFRDRFDGYVFLDNKGQEYPAIVEFAPFQKAAKKKTKKRDTKVGTIDDDPEYRKFLESYATDNEKMTSTPETLLEEIEAKNRELIAKKTTPLLSFLKNKQRMREEKREERRRREIERKRQREEERRKWKEEEKRKRKDIEKLKKIDRIPERDKLKDEPKIKLLKKPEKGDEKELDKREKAKKLDKENLSDERASGQSCTLPKRSDSELKDEKPKRPEDESGRDYREREREYERDQERILRERERLKRQEEERRRQKERYEKEKTFKRKEEEMKKEKDTLRDKGKKAESTESIGSSEKTEKKEEVVKRDRIRNKDRPAMQLYQPGARSRNRLCPPDDSTKSGDSAAERKQESGISHRKEGGEE

One test concerns the target Avi-UPF2-MIF4GIII (biotinylated) (UniProt Q9HAU5). Kind of test: SPR. On the technique in general: In SPR one partner is held on a chip, and binding of the other changes the refractive index at the surface.
For the molecule “full-length UPF3A-WT (from UniProt Q9H1J1 1-476) (natural protein)”, the Kd was 0.048 nM.

In another test the target is B11. Kind of test: SPR.
B1 showed a Kd of 3.6 nM.
Same read-out and setting: the result for B2 reads 88 nM; that for B3, 90 nM.
Still for that read-out and setting: the result for B4 reads 140 nM.
For B5, the Kd is ~130 nM.
With B6, binding was put at a Kd of 7.4 nM.
Turning to B7, the Kd was ~130 nM.
The same measure, in the same setting: the result for B8 reads 3.3 nM.
The molecule B9 had a Kd of 0.22 nM.
On the same count and under the same terms, the result for B10 reads 720 nM.

The target in the next test is B12. Kind of test: SPR.
Take B11: binding was put at a Kd of 0.47 nM.

A further test has as its target T1, UPF2L (120-1227). In words: native gel or EMSA.
As to B12, the binding result is “binds”.

For orientation: Kd means a measure of binding affinity in units of concentration. High values mean weaker binding, low ones tighter binding.
